Values joined by “and” are separate entries in the source; they are usually repeats but may differ in a detail not shown here. Equal values may be shown once. Each block holds one molecule with its values, some of them ahead of it.
Experiments:
[1] = biological target: tES–F116H(+) (Archaeoglobus fulgidus); assay: AUC
[2] = biological target: tES–F116H(+/–) (Archaeoglobus fulgidus); assay: AUC
[3] = biological target: tES–F116H(–) (Archaeoglobus fulgidus); assay: AUC
[4] = biological target: tES–F116H(+) (Archaeoglobus fulgidus); assay: AUC; sedimentation of tES–F116H/POI samples (1 µM) in PBS, 20 °C, absorbance at 280 nm; POI loaded into tES by pH shift 5.8 to 8.0 and dialysis
[5] = biological target: tES–F116H(+) (Archaeoglobus fulgidus); assay: AUC; remark: listed apart in the source
AUC = biological target: the molecule itself; assay: AUC

Molecule: Tumor protein 53, stabilized clone (from UniProt P04637 1-393) (natural protein)
stoichiometry N (p53 per tES shell) [1]: 1
stoichiometry N (p53 per tES shell) [2]: 1

Molecule: rFasxiator (natural protein)
stoichiometry N (rFasxiator per tES shell) [3]: 3

Now from value to molecule, other results behind:

stoichiometry N (rLuc per tES shell) [4]: 2 and 1
Molecule: Renilla luciferin 2-monooxygenase (from UniProt P27652 1-311) (enzyme)

stoichiometry N (sAP per tES shell) [5]: 1
B1: Shrimp alkaline phosphatase (enzyme, UniProt Q9BHT8 1-475, looked up)
chain: KAYWNKDAQDALDKQLGIKLREKQAKNVIFFLGDGMSLSTVTAARIYKGGLTGKFEREKISWEEFDFAALSKTYNTDKQVTDSAASATAYLTGVKTNQGVIGLDANTVRTNCSYQLDESLFTYSIAHWFQEAGRSTGVVTSTRVTHATPAGTYAHVADRDWENDSDVVHDREDPEICDDIAEQLVFREPGKNFKVIMGGGRRGFFPEEALDIEDGIPGEREDGKHLITDWLDDKASQGATASYVWNRDDLLAVDIRNTDYLMGLFSYTHLDTVLTRDAEMDPTLPEMTKVAIEMLTKDENGFFLLVEGGRIDHMHHANQIRQSLAETLDMEEAVSMALSMTDPEETIILVTADHGHTLTITGYADRNTDILDFAGISDLDDRRYTILDYGSGPGYHITEDGKRYEPTEEDLKDINFRYASAAPKHSVTHDGTDVGIWVNGPFAHLFTGVYEENYIPHALAYAACVGTGRTFCDEK
notes: also called sAP; AP
stoichiometry N (AUC): 2

Source: PMC8481291 (Nature Communications, 2021)
